This passage reports structure_or_conformation and other results from paper PMC11402997.

For this data set the following is noted: phosphorylation at S2808.

On to “RyR2 (ryanodine receptor type 2): S2808D phosphomimetic (expressing cells also treated with H2O2; irreversible oxidative modifications retained)”, for which the structure_or_conformation entry is “changes, RMSD normalized projection = 0.11 (subprimed state)”.
For the substance “RyR2 (ryanodine receptor type 2): S2808D phosphomimetic”, the other result is reported as “increases”.
